Measurements reported in paper PMC6136348, “In the quest for new targets for pathogen eradication: the adenylosuccinate synthetase from the bacterium Helicobacter pylori” (Journal of Enzyme Inhibition and Medicinal Chemistry, 2018).

Assays:
[1] = substrate: Nc1nc2c(ncn2[C@@H]2O[C@H](COP(=O)(O)OP(=O)(O)OP(=O)(O)O)[C@@H](O)[C@H]2O)c(=O)[nH]1; assay: Michaelis-Menten kinetics of the purified enzyme (Km); assay type: biochemical, Helicobacter pylori; settings: Mg2+
[2] = substrate: N[C@@H](CC(=O)O)C(=O)O; assay: as above; assay type: biochemical, Helicobacter pylori; settings: Mg2+

B1: adenylosuccinate synthetase (AdSS) (Helicobacter pylori 26695) (protein)
chain: MADVVVGIQWGDEGKGKIVDRIAKDYDFVVRYQGGHNAGHTIVHKGVKHSLHLMPSGVLYPKCKNIISSAVVVSVKDLCEEISAFEDLENRLFVSDRAHVILPYHAKKDAFKEKSQNIGTTKKGIGPCYEDKMARSGIRMGDLLDDKILEEKLNAHFKAIEPFKKAYDLGENYEKDLMGYFKTYAPKICPFIKDTTSMLIEANQKGEKILLEGAQGTLLDIDLGTYPFVTSSNTTSASACVSTGLNPKAINEVIGITKAYSTRVGNGPFPSEDTTPMGDHLRTKGAEFGTTTKRPRRCGWLDLVALKYACALNGCTQLALMKLDVLDGIDAIKVCVAYERKGERLEIFPSDLKDCVPIYQTFKGWEKSVGVRKLDDLEPNVREYIRFIEKEVGVKIRLISTSPEREDTIFL
notes: recombinant protein expressed from pET21b-HPpurA
B1 gave a Km [1] of 8.7 ± 0.6 µM, a Vmax [1] of 1.42 µmol/min/mg and a Km [2] of 125.4 ± 7.7 µM. For the same protein, the Vmax [2] was 1.1 µmol/min/mg.
